# Biological target: Rabbit skeletal actin (actin filaments) (rabbit) (UniProt P68135)
# Experiment: high-speed atomic force microscopy
substance,measurement,value
Recombinant human alpha-actinin-1 ABD-E235K (from UniProt P12814 1-892) (domain or fragment),dwell time at 1 uM ABD-E235K,0.39 s
same,dwell time at 2 uM ABD-E235K,0.4 s
same,dwell time at 3 uM ABD-E235K,0.51 s
